Data: PMC1110745

Molecular target: GST-AP-2alpha (Homo sapiens, UniProt P05549 1-437)
Experiment: competition

Sequence of GST-AP-2alpha (P05549 whole entry): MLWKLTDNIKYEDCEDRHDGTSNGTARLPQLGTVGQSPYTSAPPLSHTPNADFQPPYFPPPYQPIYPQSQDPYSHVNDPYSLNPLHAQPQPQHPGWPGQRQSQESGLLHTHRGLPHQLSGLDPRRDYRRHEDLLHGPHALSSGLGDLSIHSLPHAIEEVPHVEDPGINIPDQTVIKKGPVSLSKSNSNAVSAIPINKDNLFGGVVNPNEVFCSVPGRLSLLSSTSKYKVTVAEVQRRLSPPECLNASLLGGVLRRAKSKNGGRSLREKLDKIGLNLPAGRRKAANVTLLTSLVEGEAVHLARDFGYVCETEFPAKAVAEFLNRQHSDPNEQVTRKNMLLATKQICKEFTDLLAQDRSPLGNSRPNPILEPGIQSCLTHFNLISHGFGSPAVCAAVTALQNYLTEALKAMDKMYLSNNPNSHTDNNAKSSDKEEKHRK

B1: O58 (dsDNA)
DNA 1: GATTGTCCCTACACTCGCCTCAGGCGATCATCGGAATACACGATGCTTGG
DNA 2: CCAAGCATCGTGTATTCCGATGATCGCCTGAGGCGAGTGTAGGGACAATC
binding result: binds
